This note sets out measurements from patent US20200353050A1 (Eli Lilly, published 2020).

A word on the Kd: it is the free concentration of one partner at which half of the binding sites on the other are occupied at equilibrium, for simple one-to-one binding.

The target of assay [1] is T1, PD-1.
T1 construct: the paragraph before it speaks of human and cynomolgus PD-1; also called programmed cell death protein 1; CD279
Description: bio-layer interferometry (BLI). On the technique in general: BLI is a label-free optical method that tracks binding on a fibre tip over time.

For assay [2], the target named is T2, cynomologous monkey PD-1 (cynomologous monkey, UniProt B0LAJ3 25-170).
T2 construct: also called cynomolgus PD-1
T2 sequence (B0LAJ3 entry or part of it limits assumed): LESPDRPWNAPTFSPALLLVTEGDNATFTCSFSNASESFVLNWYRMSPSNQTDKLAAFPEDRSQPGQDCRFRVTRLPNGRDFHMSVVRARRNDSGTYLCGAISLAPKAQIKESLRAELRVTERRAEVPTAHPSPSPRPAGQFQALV
Description: method not stated in that sentence (BLI in the next one), 25° C.

The target in assay [3] is T3, human PD-1 (human, UniProt Q15116 25-167, limits assumed).
T3 construct: also called programmed cell death protein 1; CD279
T3 sequence (Q15116 25-167 limits assumed): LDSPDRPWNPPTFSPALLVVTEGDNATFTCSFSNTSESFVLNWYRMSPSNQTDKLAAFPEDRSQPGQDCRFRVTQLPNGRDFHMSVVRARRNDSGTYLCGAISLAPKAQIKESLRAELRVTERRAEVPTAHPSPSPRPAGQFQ
As to the kind of experiment: method not stated in that sentence (BLI in the next one), 25° C; 25° C; human PD-1.

T1 sequence (Q15116 25-170): as the sequence (B0LAJ3 entry or part of it limits assumed) above, with E2D, A10P, L19V, A35T, R75Q, A144T counted along it

B1: AM0001 (antibody, human IgG4 S228P, lambda, V domains shown)
VH: EVQLLESGGGLVQPGGSLRLSCPASGFTFSSYAMSWVRQAPGKGLGWVSDISGGGGTTYYADSVKGRFTISRDNSKNTLYLQMNSLRGEDTAVYYCAKSGTVVTDFDYWGQGTLVTVSS
VL: SYVLTQPPSVSVAPGQTARVTCGGNSIGSYSVHWYQQKPGQAPVLVVYDDSDRPSGIPERFSGSNSGNTAALTISRVEAGDEADYYCQVWDTSSYWVFGGGTKLTVLG
notes: Monoclonal antibody with a lambda 2 light chain and a hinge-stabilized IgG4 (S228P) heavy chain; also called PD1-antagonist antibody AM0001; VH-09/VL-09
On to B1, for which the figures for the dissociation constant Kd in assay [1], in assay [2] and in assay [3] were below 1 pM, at most 10 pM and at most 10 pM, respectively.
